Assay results from paper PMC10889842.

Biological target: StBIN2 (Brassinolide insensitive 2 of potato), fused to nLUC (Solanum tuberosum (potato))
Experiment: split reporter (BiFC, NanoBiT); luciferase complementation in infiltrated tobacco leaves; LUC enzyme activity detected with a dual luciferase reporter assay kit (Vazyme); three biological repeats

| LUC enzyme activity, fold over the negative control [fold] | Substance |
| --- | --- |
| 5 | StCCJ9 (a homolog of peroxidase AtPER12), fused to cLUC (enzyme) |
| > 5 | StSnRK2.2, fused to cLUC (natural protein) |
